Measured values from patent US20130210709A1 (ANCHOR THERAPEUTICS, published 2013).
Ends that are not written are not given here. * marks the point of attachment. Palmitoyl = CCCCCCCCCCCCCCCC(=O)*

B1: CXCR4 i2 loop compound 82 (peptide)
peptide: Palmitoyl-HATNSQRPRKLLAEK-NH2
SMILES: CCCCCCCCCCCCCCCC(=O)N[C@@H](Cc1c[nH]cn1)C(=O)N[C@@H](C)C(=O)N[C@H](C(=O)N[C@@H](CC(N)=O)C(=O)N[C@@H](CO)C(=O)N[C@@H](CCC(N)=O)C(=O)N[C@@H](CCCNC(=N)N)C(=O)N1CCC[C@H]1C(=O)N[C@@H](CCCNC(=N)N)C(=O)N[C@@H](CCCCN)C(=O)N[C@@H](CC(C)C)C(=O)N[C@@H](CC(C)C)C(=O)N[C@@H](C)C(=O)N[C@@H](CCC(=O)O)C(=O)N[C@@H](CCCCN)C(N)=O)[C@@H](C)O
B2: CXCR4 i2 loop compound 80 (peptide)
peptide: Palmitoyl-HATNSQRPRKLLA-NH2
SMILES: CCCCCCCCCCCCCCCC(=O)N[C@@H](Cc1c[nH]cn1)C(=O)N[C@@H](C)C(=O)N[C@H](C(=O)N[C@@H](CC(N)=O)C(=O)N[C@@H](CO)C(=O)N[C@@H](CCC(N)=O)C(=O)N[C@@H](CCCNC(=N)N)C(=O)N1CCC[C@H]1C(=O)N[C@@H](CCCNC(=N)N)C(=O)N[C@@H](CCCCN)C(=O)N[C@@H](CC(C)C)C(=O)N[C@@H](CC(C)C)C(=O)N[C@@H](C)C(N)=O)[C@@H](C)O
B3: CXCR4 i2 loop compound 83 (peptide)
peptide: Palmitoyl-HATNSQRPRKLLAEKV-NH2
SMILES: CCCCCCCCCCCCCCCC(=O)N[C@@H](Cc1c[nH]cn1)C(=O)N[C@@H](C)C(=O)N[C@H](C(=O)N[C@@H](CC(N)=O)C(=O)N[C@@H](CO)C(=O)N[C@@H](CCC(N)=O)C(=O)N[C@@H](CCCNC(=N)N)C(=O)N1CCC[C@H]1C(=O)N[C@@H](CCCNC(=N)N)C(=O)N[C@@H](CCCCN)C(=O)N[C@@H](CC(C)C)C(=O)N[C@@H](CC(C)C)C(=O)N[C@@H](C)C(=O)N[C@@H](CCC(=O)O)C(=O)N[C@@H](CCCCN)C(=O)N[C@H](C(N)=O)C(C)C)[C@@H](C)O
B4: CXCR4 i2 loop compound 79 (peptide)
peptide: Palmitoyl-HATNSQRPRKL-NH2
SMILES: CCCCCCCCCCCCCCCC(=O)N[C@@H](Cc1c[nH]cn1)C(=O)N[C@@H](C)C(=O)N[C@H](C(=O)N[C@@H](CC(N)=O)C(=O)N[C@@H](CO)C(=O)N[C@@H](CCC(N)=O)C(=O)N[C@@H](CCCNC(=N)N)C(=O)N1CCC[C@H]1C(=O)N[C@@H](CCCNC(=N)N)C(=O)N[C@@H](CCCCN)C(=O)N[C@@H](CC(C)C)C(N)=O)[C@@H](C)O
B5: CXCR4 i2 loop compound 81 (peptide)
peptide: Palmitoyl-HATNSQRPRKLLAE-NH2
SMILES: CCCCCCCCCCCCCCCC(=O)N[C@@H](Cc1c[nH]cn1)C(=O)N[C@@H](C)C(=O)N[C@H](C(=O)N[C@@H](CC(N)=O)C(=O)N[C@@H](CO)C(=O)N[C@@H](CCC(N)=O)C(=O)N[C@@H](CCCNC(=N)N)C(=O)N1CCC[C@H]1C(=O)N[C@@H](CCCNC(=N)N)C(=O)N[C@@H](CCCCN)C(=O)N[C@@H](CC(C)C)C(=O)N[C@@H](CC(C)C)C(=O)N[C@@H](C)C(=O)N[C@@H](CCC(=O)O)C(N)=O)[C@@H](C)O
B6: CXCR4 i4 loop compound 112 (peptide)
peptide: Palmitoyl-GAKFKTSAQHALTSVSRGSSLKILSGGK-NH2
SMILES: CCCCCCCCCCCCCCCC(=O)NCC(=O)N[C@@H](C)C(=O)N[C@@H](CCCCN)C(=O)N[C@@H](Cc1ccccc1)C(=O)N[C@@H](CCCCN)C(=O)N[C@H](C(=O)N[C@@H](CO)C(=O)N[C@@H](C)C(=O)N[C@@H](CCC(N)=O)C(=O)N[C@@H](Cc1c[nH]cn1)C(=O)N[C@@H](C)C(=O)N[C@@H](CC(C)C)C(=O)N[C@H](C(=O)N[C@@H](CO)C(=O)N[C@H](C(=O)N[C@@H](CO)C(=O)N[C@@H](CCCNC(=N)N)C(=O)NCC(=O)N[C@@H](CO)C(=O)N[C@@H](CO)C(=O)N[C@@H](CC(C)C)C(=O)N[C@@H](CCCCN)C(=O)N[C@H](C(=O)N[C@@H](CC(C)C)C(=O)N[C@@H](CO)C(=O)NCC(=O)NCC(=O)N[C@@H](CCCCN)C(N)=O)[C@@H](C)CC)C(C)C)[C@@H](C)O)[C@@H](C)O
B7: CXCR4 i4 loop compound 110 (peptide)
peptide: Palmitoyl-GAKFKTSAQHALTSVSRGSSLKILSKGKRGGSCFH-NH2
SMILES: CCCCCCCCCCCCCCCC(=O)NCC(=O)N[C@@H](C)C(=O)N[C@@H](CCCCN)C(=O)N[C@@H](Cc1ccccc1)C(=O)N[C@@H](CCCCN)C(=O)N[C@H](C(=O)N[C@@H](CO)C(=O)N[C@@H](C)C(=O)N[C@@H](CCC(N)=O)C(=O)N[C@@H](Cc1c[nH]cn1)C(=O)N[C@@H](C)C(=O)N[C@@H](CC(C)C)C(=O)N[C@H](C(=O)N[C@@H](CO)C(=O)N[C@H](C(=O)N[C@@H](CO)C(=O)N[C@@H](CCCNC(=N)N)C(=O)NCC(=O)N[C@@H](CO)C(=O)N[C@@H](CO)C(=O)N[C@@H](CC(C)C)C(=O)N[C@@H](CCCCN)C(=O)N[C@H](C(=O)N[C@@H](CC(C)C)C(=O)N[C@@H](CO)C(=O)N[C@@H](CCCCN)C(=O)NCC(=O)N[C@@H](CCCCN)C(=O)N[C@@H](CCCNC(=N)N)C(=O)NCC(=O)NCC(=O)N[C@@H](CO)C(=O)N[C@@H](CS)C(=O)N[C@@H](Cc1ccccc1)C(=O)N[C@@H](Cc1c[nH]cn1)C(N)=O)[C@@H](C)CC)C(C)C)[C@@H](C)O)[C@@H](C)O
B8: CXCR4 i4 loop compound 114 (peptide)
peptide: Palmitoyl-GAKFKTSAQHALTSVSRGSSLKILSK-NH2
SMILES: CCCCCCCCCCCCCCCC(=O)NCC(=O)N[C@@H](C)C(=O)N[C@@H](CCCCN)C(=O)N[C@@H](Cc1ccccc1)C(=O)N[C@@H](CCCCN)C(=O)N[C@H](C(=O)N[C@@H](CO)C(=O)N[C@@H](C)C(=O)N[C@@H](CCC(N)=O)C(=O)N[C@@H](Cc1c[nH]cn1)C(=O)N[C@@H](C)C(=O)N[C@@H](CC(C)C)C(=O)N[C@H](C(=O)N[C@@H](CO)C(=O)N[C@H](C(=O)N[C@@H](CO)C(=O)N[C@@H](CCCNC(=N)N)C(=O)NCC(=O)N[C@@H](CO)C(=O)N[C@@H](CO)C(=O)N[C@@H](CC(C)C)C(=O)N[C@@H](CCCCN)C(=O)N[C@H](C(=O)N[C@@H](CC(C)C)C(=O)N[C@@H](CO)C(=O)N[C@@H](CCCCN)C(N)=O)[C@@H](C)CC)C(C)C)[C@@H](C)O)[C@@H](C)O
B9: CXCR4 i4 loop compound 107 (peptide)
peptide: GAKFKTSAQHALTSVSRGSSLKILSKGKRGGHSSVST-NH2
modifications: not fully specified (N-terminus); also: dual lipid, backbone lipid not given here
B10: CXCR4 i4 loop compound 109 (peptide)
peptide: Palmitoyl-GAKFKTSAQHALTSVSRGSSLKILSKGKRGGHSSVST-NH2
SMILES: CCCCCCCCCCCCCCCC(=O)NCC(=O)N[C@@H](C)C(=O)N[C@@H](CCCCN)C(=O)N[C@@H](Cc1ccccc1)C(=O)N[C@@H](CCCCN)C(=O)N[C@H](C(=O)N[C@@H](CO)C(=O)N[C@@H](C)C(=O)N[C@@H](CCC(N)=O)C(=O)N[C@@H](Cc1c[nH]cn1)C(=O)N[C@@H](C)C(=O)N[C@@H](CC(C)C)C(=O)N[C@H](C(=O)N[C@@H](CO)C(=O)N[C@H](C(=O)N[C@@H](CO)C(=O)N[C@@H](CCCNC(=N)N)C(=O)NCC(=O)N[C@@H](CO)C(=O)N[C@@H](CO)C(=O)N[C@@H](CC(C)C)C(=O)N[C@@H](CCCCN)C(=O)N[C@H](C(=O)N[C@@H](CC(C)C)C(=O)N[C@@H](CO)C(=O)N[C@@H](CCCCN)C(=O)NCC(=O)N[C@@H](CCCCN)C(=O)N[C@@H](CCCNC(=N)N)C(=O)NCC(=O)NCC(=O)N[C@@H](Cc1c[nH]cn1)C(=O)N[C@@H](CO)C(=O)N[C@@H](CO)C(=O)N[C@H](C(=O)N[C@@H](CO)C(=O)N[C@H](C(N)=O)[C@@H](C)O)C(C)C)[C@@H](C)CC)C(C)C)[C@@H](C)O)[C@@H](C)O
B11: CXCR4 i4 loop compound 108 (peptide)
peptide: GAKFKTSAQHALTSVSRGSSLKILSKGKRG-NH2
modifications: not fully specified (N-terminus)
B12: CXCR4 i4 loop compound 115 (peptide)
peptide: Palmitoyl-GAKFKTSAQHALTSVSRGSSLK-NH2
SMILES: CCCCCCCCCCCCCCCC(=O)NCC(=O)N[C@@H](C)C(=O)N[C@@H](CCCCN)C(=O)N[C@@H](Cc1ccccc1)C(=O)N[C@@H](CCCCN)C(=O)N[C@H](C(=O)N[C@@H](CO)C(=O)N[C@@H](C)C(=O)N[C@@H](CCC(N)=O)C(=O)N[C@@H](Cc1c[nH]cn1)C(=O)N[C@@H](C)C(=O)N[C@@H](CC(C)C)C(=O)N[C@H](C(=O)N[C@@H](CO)C(=O)N[C@H](C(=O)N[C@@H](CO)C(=O)N[C@@H](CCCNC(=N)N)C(=O)NCC(=O)N[C@@H](CO)C(=O)N[C@@H](CO)C(=O)N[C@@H](CC(C)C)C(=O)N[C@@H](CCCCN)C(N)=O)C(C)C)[C@@H](C)O)[C@@H](C)O

target: T1, CXCR4 receptor (human, UniProt P61073 1-352); assay: cell-based or functional assay
T1 sequence (P61073 whole entry): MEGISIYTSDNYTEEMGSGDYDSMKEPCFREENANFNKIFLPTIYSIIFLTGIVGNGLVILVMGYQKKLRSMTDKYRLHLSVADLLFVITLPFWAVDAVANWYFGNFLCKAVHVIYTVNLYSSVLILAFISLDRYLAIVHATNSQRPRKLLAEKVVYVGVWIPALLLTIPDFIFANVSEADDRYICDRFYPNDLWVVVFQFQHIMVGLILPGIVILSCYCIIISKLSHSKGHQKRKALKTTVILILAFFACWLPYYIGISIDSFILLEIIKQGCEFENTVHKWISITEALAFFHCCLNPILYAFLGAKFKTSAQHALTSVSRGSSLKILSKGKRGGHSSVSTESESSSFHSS

Binder	AUC (% of vehicle), chemotaxis, SUPB-15, 1.0 uM	Max (% of vehicle), chemotaxis, SUPB-15, 1.0 uM	Peak Ratio, chemotaxis, SUPB-15, 1.0 uM
B1	125 % of vehicle	126 % of vehicle	0.2
B2	102 % of vehicle	69 % of vehicle	0.2
B3	126 % of vehicle	110 % of vehicle	1
B4	109 % of vehicle	110 % of vehicle	0.2
B5	79.8 % of vehicle	76.5 % of vehicle	0.2

target: T1, CXCR4 receptor; assay: cell-based or functional assay; remark: another data set of the same source

Binder	AUC (% of Vehicle), CHTX, CEM, 1.0 uM	Max (% of Vehicle), CHTX, CEM, 1.0 uM	Peak Ratio, CHTX, CEM, 1.0 uM
B6	48.9 % of Vehicle	54.7 % of Vehicle	0.2
B7	41 % of Vehicle	42.1 % of Vehicle	1
B8	34.2 % of Vehicle	63.1 % of Vehicle	1
B9	57.3 % of Vehicle	49.5 % of Vehicle	5
B10	49.3 % of Vehicle	49.8 % of Vehicle	0.04
B11	89.5 % of Vehicle	83.9 % of Vehicle	5
B12	77.5 % of Vehicle	92.1 % of Vehicle	1
